Reference: article PMC7545097, “Mapping the native interaction surfaces of PREP1 with PBX1 by cross-linking mass-spectrometry and mutagenesis” (Scientific Reports, 2020)
Where a chain is given by its changes, count along the chain named. Values belong to the binder of their own block, whether it stands above or below them.

Key:
Test in all cases: time-resolved fluorescence immunoassay (TR-FIA); plate coated with monoclonal anti-PBX1; PBX1 pre-incubated with PREP1 or MEIS1 for 1 h on ice, 10 µg/mL in 1% BSA PBS, 1 h at room temperature on the plate; detected with anti-PREP1 or biotinylated anti-MEIS1/2 and Eu^3+ conjugates; normalised to the wild-type protein taken as 1
Conditions in all cases: both partners purified
PBX1 I197A = biological target: T1, PBX1 I197A (human, UniProt P40424 1-430, I197A)
T1 construct: PBX1, residues 1-430; source: E. coli, purified
T1 sequence (looked up): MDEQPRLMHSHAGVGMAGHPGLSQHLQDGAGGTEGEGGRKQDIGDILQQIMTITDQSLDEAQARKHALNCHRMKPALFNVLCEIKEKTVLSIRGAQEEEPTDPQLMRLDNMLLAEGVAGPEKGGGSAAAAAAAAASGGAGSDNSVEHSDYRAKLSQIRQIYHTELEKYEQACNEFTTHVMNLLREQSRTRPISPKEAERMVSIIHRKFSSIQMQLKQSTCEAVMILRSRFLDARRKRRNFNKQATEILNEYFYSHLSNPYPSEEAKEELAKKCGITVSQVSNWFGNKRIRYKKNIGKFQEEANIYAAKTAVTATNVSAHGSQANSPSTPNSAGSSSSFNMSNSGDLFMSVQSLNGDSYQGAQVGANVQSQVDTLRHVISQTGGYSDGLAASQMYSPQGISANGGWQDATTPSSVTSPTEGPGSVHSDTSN

PBX1 Δ77-84 = biological target: T2, PBX1 Δ77-84 (human, UniProt P40424 1-430, Δ77−84)
T2 construct: PBX1, residues 1-430, with an internal deletion; source: E. coli, purified
T2 sequence (looked up): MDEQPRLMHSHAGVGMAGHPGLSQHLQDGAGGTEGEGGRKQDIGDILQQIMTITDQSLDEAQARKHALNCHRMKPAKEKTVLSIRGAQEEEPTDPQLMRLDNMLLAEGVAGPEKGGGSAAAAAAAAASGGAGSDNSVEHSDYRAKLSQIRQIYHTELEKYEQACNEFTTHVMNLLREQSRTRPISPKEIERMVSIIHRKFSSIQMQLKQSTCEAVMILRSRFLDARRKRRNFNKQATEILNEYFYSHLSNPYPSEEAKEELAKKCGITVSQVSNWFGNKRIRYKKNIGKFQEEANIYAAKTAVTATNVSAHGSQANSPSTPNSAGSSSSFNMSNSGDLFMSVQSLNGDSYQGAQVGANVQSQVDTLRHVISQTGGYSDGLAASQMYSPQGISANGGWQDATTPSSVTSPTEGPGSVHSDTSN

PREP1 L69A = biological target: T3, PREP1 L69A (UniProt P55347 1-436, L69A)
T3 construct: PREP1 (PKNOX1), residues 1-436
T3 sequence (looked up): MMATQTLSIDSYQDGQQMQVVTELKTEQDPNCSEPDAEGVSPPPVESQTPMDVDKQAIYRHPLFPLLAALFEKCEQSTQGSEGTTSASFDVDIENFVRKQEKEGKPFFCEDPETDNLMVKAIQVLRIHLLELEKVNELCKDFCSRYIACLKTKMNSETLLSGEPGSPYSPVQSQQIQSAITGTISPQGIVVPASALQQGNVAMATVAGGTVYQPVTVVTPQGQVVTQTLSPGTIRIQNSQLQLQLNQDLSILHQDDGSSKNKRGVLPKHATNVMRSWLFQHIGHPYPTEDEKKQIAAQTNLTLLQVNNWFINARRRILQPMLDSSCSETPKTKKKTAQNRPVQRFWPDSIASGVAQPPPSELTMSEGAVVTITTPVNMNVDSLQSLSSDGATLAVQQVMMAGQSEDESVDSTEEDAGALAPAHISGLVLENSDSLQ

PREP1 L67A = biological target: T4, PREP1 L67A (UniProt P55347 1-436, L67A)
T4 construct: PREP1 (PKNOX1), residues 1-436
T4 sequence (looked up): T3 sequence (looked up) with L67A, A69L

binding relative to wild type (PBX1 I197A): ~65% | binding relative to wild type (PBX1 Δ77-84): 35%
B1: PREP1_(1-436), wild-type recombinant (TR-FIA) (natural protein, UniProt P55347 1-436, looked up)
chain: T3 sequence (looked up) with A69L
notes: also called wild-type PREP1; PKNOX1; source: E. coli, purified

binding result (PREP1 L69A): binds | binding result (PREP1 L67A): binds
B2: PBX1_(1-430), wild-type recombinant (natural protein, human, UniProt P40424 1-430, looked up)
chain: T1 sequence (looked up) with A197I
notes: also called wild-type PBX1; purified recombinant human PBX1; source: E. coli, purified
